{
  "source": "paper PMC4919518",
  "test_in_all_cases": "fluorescence polarization; 5 mM Mg2+; FP: 20 mM HEPES-KOH pH 7.5, 200 mM NaCl, 5 mM MgCl2, 0.01 mg/ml E. coli total tRNA, 0.01% NP-40, 10 pM probe, 25 C; EMSA: 20 mM HEPES-KOH pH 7.5, 200 mM NaCl, 5",
  "key": {"RsAgo Y463A/K467A": {"target": "T1, RsAgo Y463A/K467A (Rhodobacter sphaeroides (ATCC 17025D-5), UniProt A4WYU7 1-777, Y463A;K467A)", "T1 sequence": "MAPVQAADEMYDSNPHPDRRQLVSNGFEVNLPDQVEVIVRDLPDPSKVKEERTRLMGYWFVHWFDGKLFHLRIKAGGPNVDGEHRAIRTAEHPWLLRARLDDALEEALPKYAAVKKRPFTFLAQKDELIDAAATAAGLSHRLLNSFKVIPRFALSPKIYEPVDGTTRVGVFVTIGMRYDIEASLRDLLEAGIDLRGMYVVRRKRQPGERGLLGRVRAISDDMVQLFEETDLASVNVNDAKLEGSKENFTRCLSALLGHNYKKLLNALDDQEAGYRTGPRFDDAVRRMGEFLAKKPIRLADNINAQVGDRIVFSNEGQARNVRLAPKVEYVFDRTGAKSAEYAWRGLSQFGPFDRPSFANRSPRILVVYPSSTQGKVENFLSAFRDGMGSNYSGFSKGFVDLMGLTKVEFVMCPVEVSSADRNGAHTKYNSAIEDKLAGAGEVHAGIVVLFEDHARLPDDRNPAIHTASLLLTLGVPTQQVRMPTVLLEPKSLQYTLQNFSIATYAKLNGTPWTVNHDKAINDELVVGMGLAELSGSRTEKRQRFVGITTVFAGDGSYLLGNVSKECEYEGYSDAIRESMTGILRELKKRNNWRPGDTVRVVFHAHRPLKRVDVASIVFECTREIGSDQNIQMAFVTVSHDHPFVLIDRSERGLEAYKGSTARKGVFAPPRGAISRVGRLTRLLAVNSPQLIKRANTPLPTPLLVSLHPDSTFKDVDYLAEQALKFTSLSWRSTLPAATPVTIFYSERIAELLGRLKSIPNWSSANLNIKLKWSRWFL"}, "RsAgo delL777": {"target": "T2, RsAgo delL777 (Rhodobacter sphaeroides (ATCC 17025D-5), UniProt A4WYU7 1-776, del777-777)", "T2 sequence": "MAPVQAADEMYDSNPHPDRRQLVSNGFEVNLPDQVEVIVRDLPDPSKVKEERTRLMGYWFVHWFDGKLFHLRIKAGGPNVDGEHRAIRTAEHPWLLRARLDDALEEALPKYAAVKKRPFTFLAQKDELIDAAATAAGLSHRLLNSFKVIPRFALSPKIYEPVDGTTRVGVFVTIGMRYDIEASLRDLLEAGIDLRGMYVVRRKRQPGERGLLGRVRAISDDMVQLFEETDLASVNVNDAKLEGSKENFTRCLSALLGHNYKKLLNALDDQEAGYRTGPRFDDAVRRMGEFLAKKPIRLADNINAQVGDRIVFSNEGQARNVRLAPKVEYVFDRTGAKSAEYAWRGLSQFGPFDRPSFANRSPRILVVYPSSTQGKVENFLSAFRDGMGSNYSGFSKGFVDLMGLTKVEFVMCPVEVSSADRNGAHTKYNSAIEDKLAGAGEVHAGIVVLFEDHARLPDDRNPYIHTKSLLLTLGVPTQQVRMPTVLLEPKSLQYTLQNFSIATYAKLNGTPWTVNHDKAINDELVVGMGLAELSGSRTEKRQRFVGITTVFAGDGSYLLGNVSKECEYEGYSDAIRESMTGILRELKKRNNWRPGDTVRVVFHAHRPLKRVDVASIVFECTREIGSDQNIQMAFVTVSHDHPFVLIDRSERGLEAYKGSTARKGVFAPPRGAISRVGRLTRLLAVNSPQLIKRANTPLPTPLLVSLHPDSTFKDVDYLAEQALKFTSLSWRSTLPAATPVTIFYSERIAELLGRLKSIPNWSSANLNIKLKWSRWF"}, "RsAgo R481A/T484A": {"target": "T3, RsAgo R481A/T484A (Rhodobacter sphaeroides (ATCC 17025D-5), UniProt A4WYU7 1-777, R481A;T484A)", "T3 sequence": "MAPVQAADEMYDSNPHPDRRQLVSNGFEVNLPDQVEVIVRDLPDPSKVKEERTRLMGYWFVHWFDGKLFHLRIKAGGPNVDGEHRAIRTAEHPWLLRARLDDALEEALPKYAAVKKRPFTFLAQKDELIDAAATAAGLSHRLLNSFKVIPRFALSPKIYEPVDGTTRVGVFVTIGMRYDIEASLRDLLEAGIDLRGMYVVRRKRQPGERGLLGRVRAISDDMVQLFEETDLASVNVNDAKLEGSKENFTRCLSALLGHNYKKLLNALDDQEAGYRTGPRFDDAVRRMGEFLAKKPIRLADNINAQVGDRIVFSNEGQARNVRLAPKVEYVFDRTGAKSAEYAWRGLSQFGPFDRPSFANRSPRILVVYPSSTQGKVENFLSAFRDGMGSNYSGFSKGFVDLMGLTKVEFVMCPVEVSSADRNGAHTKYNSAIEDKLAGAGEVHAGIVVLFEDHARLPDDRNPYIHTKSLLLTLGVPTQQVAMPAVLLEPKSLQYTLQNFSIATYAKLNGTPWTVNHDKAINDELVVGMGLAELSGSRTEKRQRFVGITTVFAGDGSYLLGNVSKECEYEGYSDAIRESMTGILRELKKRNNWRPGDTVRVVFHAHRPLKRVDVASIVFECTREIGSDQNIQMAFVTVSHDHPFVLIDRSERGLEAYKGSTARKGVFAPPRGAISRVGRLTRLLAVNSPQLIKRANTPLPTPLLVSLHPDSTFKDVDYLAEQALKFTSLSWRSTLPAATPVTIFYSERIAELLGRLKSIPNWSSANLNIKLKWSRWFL"}},
  "data": [
    {"binder": "UUACAACCUACUACCUCG (ssRNA, 5'-phosphate)", "note": "[5'P-RNA (5'U-RNA), FAM]", "values": [
      {"measurement": "Kd", "setting": "RsAgo Y463A/K467A", "result": "1700 ± 123", "unit": "nM"},
      {"measurement": "Kd", "setting": "RsAgo delL777", "result": "38.7 ± 2.1", "unit": "nM"},
      {"measurement": "Kd", "setting": "RsAgo R481A/T484A", "result": "718 ± 36", "unit": "nM"}
    ]}
  ]
}
